From paper PMC7868722

B1: 12L (structured_DNA)
DNA: GGTTGGTGTGGTTGG
modifications: T12: N3-propargyl-dT clicked to 1-beta-D-lactopyranosyl azide
B2: 3Bz (structured_DNA)
DNA: GGTTGGTGTGGTTGG
modifications: T3: N3-aminoalkyl-dT benzoyl amide
B3: 3Ala (structured_DNA)
DNA: GGTTGGTGTGGTTGG
modifications: T3: N3-carboxymethyl-dT amide with L-alanine
B4: 3Phe (structured_DNA)
DNA: GGTTGGTGTGGTTGG
modifications: T3: N3-carboxymethyl-dT amide with L-phenylalanine
B5: 3NB (structured_DNA)
DNA: GGTTGGTGTGGTTGG
modifications: T3: N3-aminoalkyl-dT p-nitrobenzoyl amide
B6: 12Amide (structured_DNA)
DNA: GGTTGGTGTGGTTGG
modifications: T12: N3-carboxymethyl-dT amide
B7: 12Ala (structured_DNA)
DNA: GGTTGGTGTGGTTGG
modifications: T12: N3-carboxymethyl-dT amide with L-alanine
B8: 12Ser (structured_DNA)
DNA: GGTTGGTGTGGTTGG
modifications: T12: N3-carboxymethyl-dT amide with L-serine
B9: 12G (structured_DNA)
DNA: GGTTGGTGTGGTTGG
modifications: T12: N3-propargyl-dT clicked to 1-beta-D-glucopyranosyl azide (printed glycopyranosyl)
B10: 3Leu (structured_DNA)
DNA: GGTTGGTGTGGTTGG
modifications: T3: N3-carboxymethyl-dT amide with L-leucine
B11: 3L (structured_DNA)
DNA: GGTTGGTGTGGTTGG
modifications: T3: N3-propargyl-dT clicked to 1-beta-D-lactopyranosyl azide
B12: 3G (structured_DNA)
DNA: GGTTGGTGTGGTTGG
modifications: T3: N3-propargyl-dT clicked to 1-beta-D-glucopyranosyl azide (printed glycopyranosyl)
B13: TBA (HD1) (structured_DNA)
DNA: GGTTGGTGTGGTTGG
B14: 3Ser (structured_DNA)
DNA: GGTTGGTGTGGTTGG
modifications: T3: N3-carboxymethyl-dT amide with L-serine
B15: 12Trp (structured_DNA)
DNA: GGTTGGTGTGGTTGG
modifications: T12: N3-carboxymethyl-dT amide with L-tryptophan
B16: 12Phe (structured_DNA)
DNA: GGTTGGTGTGGTTGG
modifications: T12: N3-carboxymethyl-dT amide with L-phenylalanine
B17: 3Amide (structured_DNA)
DNA: GGTTGGTGTGGTTGG
modifications: T3: N3-carboxymethyl-dT amide
B18: 12Leu (structured_DNA)
DNA: GGTTGGTGTGGTTGG
modifications: T12: N3-carboxymethyl-dT amide with L-leucine
B19: 3Nic (structured_DNA)
DNA: GGTTGGTGTGGTTGG
modifications: T3: N3-aminoalkyl-dT nicotinoyl amide

These binders were tested against human alpha-thrombin (plasma) (Homo sapiens, UniProt P00734;P00734 328-363;364-622) (assay: MST).

Question: With B1 as the binder, how does the Kd read?
Answer: 27.2 ± 3 nM

Question: For B2, which Kd is on record?
Answer: 30 ± 6.6 nM

Question: With B3 as the binder, how does the Kd read?
Answer: 21.4 ± 2.8 nM

Question: B4 was tested. Which Kd did it give?
Answer: 22.6 ± 4.8 nM

Question: For B5, which Kd is on record?
Answer: 164 ± 3.5 nM

Question: B6 was tested. Which Kd did it give?
Answer: 30.6 ± 6.1 nM

Question: Which Kd does the source give for B7 here?
Answer: 51 ± 3.8 nM

Question: B8 was tested. Which Kd did it give?
Answer: 86.6 ± 4.5 nM

Question: B9 was tested. Which Kd did it give?
Answer: 20.7 ± 2.8 nM

Question: Which Kd does the source give for B10 here?
Answer: 10.9 ± 0.2 nM

Question: B11 was tested. Which Kd did it give?
Answer: 11.6 ± 0.5 nM

Question: For B12, which Kd is on record?
Answer: 9.8 ± 0.6 nM

Question: How did the Kd turn out when B13 was run?
Answer: 20.2 ± 1.3 nM

Question: B14 was tested. Which Kd did it give?
Answer: 14.6 ± 0.3 nM

Question: Which Kd does the source give for B15 here?
Answer: 67.3 ± 12.1 nM

Question: B16 was tested. Which Kd did it give?
Answer: 99.1 ± 6.3 nM

Question: Which Kd does the source give for B17 here?
Answer: 29.2 ± 0.4 nM

Question: Which Kd does the source give for B18 here?
Answer: 72.2 ± 0.9 nM

Question: For B19, which Kd is on record?
Answer: 27.1 ± 4.2 nM
